Experimental data published in US20120288474A1, “COMPOSITION FOR TREATMENT OF CXCL8-MEDIATED LUNG INFLAMMATION” (PROTAFFIN BIOTECHNOLOGIE AG, priority 2009, published 2012).

Tests used:
Type in all cases: in vivo
[1] = test system: C57BL/6J female mice intranasal instilled with LPS; experiment: LPS-induced acute lung inflammation, intranasal LPS instillation (Example 1)
Procedure: To assess potential of PA401 as anti-inflammatory in models of acute lung neutrophilia, a dose-response study with subcutaneous administration of PA401 at doses of 4, 40, 200 and 400 μg/Kg in C57BL/6J female mice intranasal instilled with LPS (0.3 μg/mouse, serotype […]) was performed. Sham instilled (saline) and Dexamethasone 3 mg/kg s.c. (administered at t=−1 h before LPS instillation) treated animals were used as controls. Bronchoalveolar lavage (BAL) was performed 4 h post LPS instillation and total cell count on BAL samples, as well as differential cell count on BAL cytospin were measured.

[2] = test system: male Balb/c mice aerosolized with LPS; experiment: LPS aerosol acute lung inflammation, s.c. or i.v. treatment (Example 2)
Procedure: A second study was performed using a slightly different model, which imply a different mouse strain and gender (male Balb/c instead of C57BL/6) a different LPS strain and serotype (Salmonella enterica instead of E. Coli) and a different LPS administration (aerosol—3.5 mg/7 mL over 30 min—instead of intranasal). PA401 doses of 4, 40 and 400 μg/kg were administered either by s.c. or i.v. route at t=−5 and t=+3 h from LPS exposure. BAL total and differential cell count were evaluated at t=8 h, a later time point compared to the previous study.
Saline aerosolized mice and mice receiving an intra tracheal administration of Dexamethasone (20 μg/20 ∥l/mouse at t=−1 h) were used as control.

[3] = test system: C57BL/6J female mice exposed to cigarette smoke; experiment: Acute model of cigarette smoke induced lung inflammation, four-day exposure (Example 3)
Procedure: Lung inflammation was induced in C57BL/6J female mice (a susceptible strain) by exposure to cigarette smoke of 4 to 6 cigarette over a four-day period. Dose response activity of subcutaneous PA401 treatment at the doses of 4, 40 and 400 μg/kg administered at t=+30 min and t=+6 h from smoke exposure, on cell infiltrates on bronchoalveolar lavages was evaluated 24 h after last cigarette smoke exposure. Air exposed, and Roflumilast (5 mg/kg oral) treated animals serve as controls.

[4] = test system: C57BL/6J female mice exposed to cigarette smoke; experiment: Sub-chronic model of cigarette smoke induced lung inflammation, eleven-day exposure, dose frequency (Example 4)
Procedure: In this study lung inflammation was induced in C57BL/6J female mice by exposure to cigarette smoke of 4 to 6 cigarettes over an eleven-day period. Dose frequency activity of subcutaneous PA401 treatment at the optimal dose of 400 μg/kg, based on the study in example 3, administered at t=+30 min and t=+6 h from smoke exposure (twice a day: b.i.d.), once daily at +3 h (q.d) and every other day (q.o.d) at +3 h, on cell infiltrates on bronchoalveolar lavages was evaluated 24 h after last cigarette smoke exposure. Air exposed, and Roflumilast (5 mg/kg oral) treated animals serve as controls.

[5] = test system: C57BL/6J female mice exposed to cigarette smoke; experiment: Sub-chronic model of cigarette smoke induced lung inflammation, eleven-day exposure, 400 vs 40 μg/kg (Example 5)
Procedure: In this study lung inflammation was induced in C57BL/6J female mice by exposure to cigarette smoke of 4 to 6 cigarettes over an eleven-day period. PA401 at the dose of 400 μg/kg daily subcutaneous was compared to the dose of 40 μg/kg daily subcutaneous. Treatment was performed at t+3 h and effects on cell infiltrates on bronchoalveolar lavages were evaluated 24 h after last cigarette smoke exposure. Air exposed, Roflumilast (5 mg/kg oral) treated animals as well as animals treated with the CXCR2 antagonist SCH527123 (10 mg/kg twice a day oral-total daily dose 20 mg/kg) serve as controls.

[6] = test system: male Balb/c mice exposed to LPS aerosol; experiment: LPS aerosol lung inflammation, intra-tracheal local delivery to the lung (Example 6)
Procedure: In this experiment lung inflammation was induced by the delivery of LPS by aerosol (Salmonella enterica, 3.5 mg/7 mL over 30 min) in male Balb/c mice. PA401 was administered intra-tracheally (i.t.) using a MicroSprayer (FJM-250 syringe; PennCentury), a device that allows delivery of a plume of aerosol (mass median diameter 16-22 μm) directly into the lungs. PA401 i.t. administration was performed at the doses of 100, 40, 10 and 4 μg/kg either 1 h before LPS exposure, or 1 h after the end of LPS exposure. Bronchoalveolar lavage (BAL) was performed 8 h post LPS exposure and total cell and neutrophil numbers were measured. Dexamethasone 20 μg/20 μl mouse i.t. was used as reference compound.

[7] = s.c. 4-400 μg/Kg, BAL cytospin 4 h post LPS
[8] = 400 μg/kg s.c., all treatment frequencies (b.i.d., q.d., q.o.d.)
[9] = 400 μg/kg s.c., b.i.d. and q.d.
[10] = i.t. 100, 40, 10 and 4 μg/kg, 1 h before or 1 h after LPS, BAL 8 h post LPS

B1: PA401: del6F17KF21KE70KN71K IL-8 mutant; modified IL-8 with increased GAG binding affinity and down-regulated GPCR activity (protein, UniProt P10145 23-99, looked up, variant del1-6 F17K F21K E70K N71K)
Interleukin-8: AVLPRCQCIKTYSKPKHPKKIKELRVIESGPHCANTEIIVKLSDGRELCLDPKENWVQRVVEKFLKRAKKS
- inhibition of cell infiltration in the BAL compared with Dexamethasone 3 mg/kg ([1]; PA401 200 and 400 μg/kg s.c., Dexamethasone 3 mg/kg s.c.): comparable to that obtained with the treatment with a high dose of Dexamethasone
- total number of cells infiltrated in lung as assessed in the BAL fluid ([1]; s.c. 4, 40, 200 and 400 μg/Kg, BAL 4 h post LPS instillation): dose-dependent reduction
- number of lymphocytes in BAL [1, 7]: significant reduction
- number of neutrophils in BAL [1, 7]: significant reduction
- lowest dose with significant effect on neutrophils and lymphocytes ([1]; s.c., BAL 4 h post LPS): 4 µg/kg
- number of total cells in the BAL ([2]; 4, 40 and 400 μg/kg s.c. or i.v. at t=-5 and t=+3 h from LPS, BAL at t=8 h): highly significant reduction
- neutrophils count in the BAL ([2]; 4, 40 and 400 μg/kg s.c. or i.v., BAL at t=8 h): reduction
- inhibitory effect compared with intra tracheal dexamethasone ([2]; PA401 i.v., Dexamethasone 20 μg/mouse i.t. at t=-1 h): reaching the same inhibitory effects of intra tracheal administration of dexamethasone
- activity by route of administration (intravenous vs subcutaneous) ([2]; i.v. vs s.c., BAL at t=8 h): more significant when administered by intravenous than by subcutaneous route
- cell subtypes (neutrophil, macrophage, epithelial cells, lymphocyte) in BAL at the other two doses ([3]; 4 and 40 μg/kg s.c.): Significant effect on most of these cell subtypes
- total cell infiltrates in BAL ([3]; 40 and 400 μg/kg s.c.): Highly significant effect
- inhibitory effect compared with Roflumilast 5 mg/kg ([3]; PA401 400 μg/kg s.c., Roflumilast 5 mg/kg oral): comparable of that obtained with Roflumilast 5 mg/kg
- epithelial cells numbers in BAL ([3]; highest dose (400 μg/kg s.c.)): significantly reduced
- lymphocyte numbers in BAL ([3]; highest dose (400 μg/kg s.c.)): significantly reduced
- macrophage numbers in BAL ([3]; highest dose (400 μg/kg s.c.)): significantly reduced
- neutrophil numbers in BAL ([3]; highest dose (400 μg/kg s.c.)): significantly reduced
- cigarette smoke induced increase in total cell number recovered in the BAL ([3]; s.c. 4, 40 and 400 μg/kg at +30 min and +6 h, BAL 24 h after last exposure): dose dependently inhibited
- total cell infiltrates in BAL ([4]; 400 μg/kg s.c. twice a day, daily and every other day, 11-day smoke): Significant effect
- epithelial cells numbers in BAL [4, 8]: significantly reduced
- neutrophil numbers in BAL [4, 8]: significantly reduced
- lymphocyte numbers in BAL [4, 9]: significant reduction
- macrophage numbers in BAL [4, 9]: significant reduction
- activity on mixed cell infiltration, twice a day vs once a day ([4]; 400 μg/kg subcutaneously, 11-day repeated exposure): comparable activity
- inhibitory effect compared with Roflumilast 5 mg/kg ([4]; PA401 400 μg/kg s.c. twice and once a day, Roflumilast 5 mg/kg oral): comparable of that obtained with Roflumilast 5 mg/kg
- epithelial cells numbers in BAL ([5]; 400 and 40 μg/kg daily s.c.): significant reduction
- lymphocyte numbers in BAL ([5]; 400 and 40 μg/kg daily s.c.): significant reduction
- macrophage numbers in BAL ([5]; 400 and 40 μg/kg daily s.c.): significant reduction
- neutrophil numbers in BAL ([5]; 400 and 40 μg/kg daily s.c.): significant reduction
- total cell infiltrates in BAL ([5]; 400 and 40 μg/kg daily s.c., 11-day smoke): Significant effect
- inhibitory effect compared with Roflumilast and CXCR2 antagonist SCH527123 ([5]; PA401 400 μg/kg daily s.c., Roflumilast 5 mg/kg oral, SCH527123 10 mg/kg twice a day oral): comparable of that obtained with Roflumilast 5 mg/kg and the CXCR2 antagonist SCH527123
- neutrophil number in BAL [6, 10]: neutrophil number reduction
- total cells in BAL [6, 10]: significant dose dependent reduction
- activity on BAL cell counts at single doses ([6]; i.t. doses of 100, 40 and 10 μg/kg): significantly active
- improved activity of therapeutic treatment (t=+1 h) compared to prophylactic treatment (-1 h) ([6]; i.t., BAL 8 h post LPS): about 10%
